# Data: the RNAGym collection of RNA variant scans (doi:10.7554/elife.90254)
# B1: OR4K15 (parent)
# chain: GUUAACGGUCAUAGGCCAUGGAAACUAGGAGCACCAUUUCGCUGCCAGUGAAGAAAUGAACAAAGAAAAUCUGGGCCAGGCAGGCAUCAAAAGAAAUAGUCUUGCGCUCAACCAGAAAGUCUGUAAUCAUUUUAAGGGUA
# Variants of: B1
# Test: self-cleavage, relative activity (ratio to wild type); higher = more cleavage; in vitro, sequencing; the parent is a self-cleaving ribozyme
row,Variant,self-cleavage
1,GUUAACGGUCAUAGGCCAUGGAAACUAGGAACACCAUUUCGCUGCCAGUGAAGAAAUGAACAAAGAAAAUCUGGGCCAGGCUGGCAUCAAAAGAAAUAGUCUUGCGCUCAACCAGAAAGUCUGUAAUCAUUUUAAGGGUA,0.14
2,GUUAACGGUCAUAGGCCAUGGAAACUAGGUGCACCAUUUCGCUGCCAGUGAAGAAAUGAACAAAGAAAAUCUGGGCCAGGCAGGCACCAAAAGAAAUAGUCUUGCGCUCAACCAGAAAGUCUGUAAUCAUUUUAAGGGUA,0.96
3,GUUAACGGUCAUAGGCCAUGGAAACUAGGUGCACCAUUUCGCUGCCAGUGAAGAAAUGAACAAAGAAAAUCUGGGCCAGGCAGGCAUCAAAAGAAAUAGUCUUGCGCCCAACCAGAAAGUCUGUAAUCAUUUUAAGGGUA,0.02
4,GUUAACGGUCAUAGGCCAUGGAAACUAGGUGCACCAUUUCGCUGCCAGUGAAGAAAUGAACAAAGAAAAUCUGGGCCAGGCAGGCAUCAAAAGAAACAGUCUUGCGCUCAACCAGAAAGUCUGUAAUCAUUUUAAGGGUA,0.83
5,GUUAACGGUCAUAGGCCAUGGAAACUAGGUGCACCAUUUCGCUGCCAGUGAAGAAAUGAACAAAGAAAAUCUGGGCCAGGCAGGCAUCAAAAGAAAUAGUCUUGCGCUCAACCAGAAAGUCUGUAAUCAUCUUAAGGGUA,1.07
6,GUUAACGGUCAUAGGCCAUGGAAACUAGGAACACCAUUUCGCUGCCAGUGGAGAAAUGAACAAAGAAAAUCUGGGCCAGGCAGGCAUCAAAAGAAAUAGUCUUGCGCUCAACCAGAAAGUCUGUAAUCAUUUUAAGGGUA,1.64
7,GUUAACGGUCAUAGGCCAUGGAAACUAGGAACACCAUUUCGCUGCCAGUGAAGAAGUGAACAAAGAAAAUCUGGGCCAGGCAGGCAUCAAAAGAAAUAGUCUUGCGCUCAACCAGAAAGUCUGUAAUCAUUUUAAGGGUA,1.41
8,GUUAACGGUCAUAGGCCAUGGAAACUAGGAACACCAUUUCGCUGCCAGUGAAGAAAUGAACAAAGAAAAUCUGGGCCAGGCAGGCAUCAGAAGAAAUAGUCUUGCGCUCAACCAGAAAGUCUGUAAUCAUUUUAAGGGUA,1.8
9,GUUAACGGUCAUAGGCCAUGGAAACUAGGUGCACCAUUUCGCUGCCAGUGAAGAAACGAACAAAGAAAAUCUGGGCCAGGCAGGCAUCAAAAGAAAUAGUCUUGCGCUCAACCAGAAAGUCUGUAAUCAUUUUAAGGGUA,1.31
10,GUUAACGGUCAUAGGCCAUGGAAACUAGGUGCACCAUUUCGCUGCCAGUGAAGAAAAGAACAAAGAAAAUCUGGGCCAGGCAGGCAUCAAAAGAAAUAGUCUUGCGCUCAACCAGAAAGUCUGUAAUCAUUUUAAGGGUA,1.02
11,GUUAACGGUCAUAGGCCAUGGAAACUAGGUGCACCAUUUCGCUGCCAGUGAAGAAAUGAACAAAGAAAAUCUGGGCCAGGCAGGCAUCAAAAGAAAUAGUCUUGCGCUCAACCAGAAAGUCUGUAAUCACUUUAAGGGUA,0.34
12,GUUAACGGUCAUAGGCCAUGGAAACUAGGAACACCAUUUCGCUGCCAGUGAAGAAAUGAACAAAGAAAAUCUGGGCCAGGCAGGCAUCAAAAGAAAUAGUCUUGCGCUCAACCAGAAAGUCUGUAAUCAUUUUAAGGGUA,1.52
13,GUUAACGGUCAUAGGCCAUGGAAACUAGGUGCACCAUUUCGCUGCCAGUGAAGAAAUGAACAAAGAAAAUCUGGGCCAGGCAGGCAUCAAAAGAAAUAGUCUUGCGCUCAACCAGAAAGUCCGUAAUCAUUUUAAGGGUA,1.35
14,GUUAACGGUCAUAGGCCAUGGAAACUAGGUGCACCAUUUCGCUGCCAGUGAAGAAAUGAACAAAGAAAAUCUGGGCCAGGCAGGCAUCAAAAGAAAUAGUCUAGCGCUCAACCAGAAAGUCUGUAAUCAUUUUAAGGGUA,0.53
15,GUUAACGGUCAUAGGCCAUGGAAACUAGGUGCACCAUUUCGCUGCCAGUGAAGAAAUGAACAAAGAAAAUCUGGGCCAGGCAGGCAUCAAAAGAAAUAGUCUGGCGCUCAACCAGAAAGUCUGUAAUCAUUUUAAGGGUA,0.03
16,GUUAACGGUCAUAGGCCAUGGAAACUAGGUGCACCAUUUCGCUGCCAGUGAAGAAAUGAACAAAGAAAAUCUGGGCCAGGCAGGCAUCAAAAGAAAUAGUCUUGCGCUCAACCAGAAAGUCUGUAAUCAUUCUAAGGGUA,1.33
17,GUUAACGGUCAUAGGCCAUGGAAACUAGGAACACCAUUUCGCUGCCAGUGAGGAAAUGAACAAAGAAAAUCUGGGCCAGGCAGGCAUCAAAAGAAAUAGUCUUGCGCUCAACCAGAAAGUCUGUAAUCAUUUUAAGGGUA,2.05
18,GUUAACGGUCAUAGGCCAUGGAAACUAGGAACACCAUUUCGCUGCCGGUGAAGAAAUGAACAAAGAAAAUCUGGGCCAGGCAGGCAUCAAAAGAAAUAGUCUUGCGCUCAACCAGAAAGUCUGUAAUCAUUUUAAGGGUA,1
19,GUUAACGGUCAUAGGCCAUGGAAACUAGGAACACCAUUUCGCUGCCUGUGAAGAAAUGAACAAAGAAAAUCUGGGCCAGGCAGGCAUCAAAAGAAAUAGUCUUGCGCUCAACCAGAAAGUCUGUAAUCAUUUUAAGGGUA,0.83
20,GUUAACGGUCAUAGGCCAUGGAAACUAGGAACACCAUUUCGCUGCCAGUGAAGAAAUGACCAAAGAAAAUCUGGGCCAGGCAGGCAUCAAAAGAAAUAGUCUUGCGCUCAACCAGAAAGUCUGUAAUCAUUUUAAGGGUA,1.95
21,GUUAACGGUCAUAGGCCAUGGAAACUAGGAACACCAUUUCGCUGCCAGUGAAGGAAUGAACAAAGAAAAUCUGGGCCAGGCAGGCAUCAAAAGAAAUAGUCUUGCGCUCAACCAGAAAGUCUGUAAUCAUUUUAAGGGUA,1.21
